Reference: patent US20090099029

B1: STK22D(TSSK1) (protein)
chain: MDDAAVLKRRGYLLGINLGEGSYAKVKSAYSERLKFNVAIKIIDRKKAPADFLEKFLPREIEILAMLNHCSIIKTYEIFETSHGKVYIVMELAVQGDLLELIKTRGALHEDEARKKFHQLSLAIKYCHDLDVVHRDLKCDNLLLDKDFNIKLSDFSFSKRCLRDDSGRMALSKTFCGSPAYAAPEVLQGIPYQPKVYDIWSLGVILYIMVCGSMPYDDSNIKKMLRIQKEHRVNFPRSKHLTGECKDLIYHMLQPDVNRRLHIDEILSHCWMQPKARGSPSVAINKEGESSRGTEPLWTPEPGSDKKSATKLEPEGEAQPQAQPETKPEGTAMQMSRQSEILGFPSKPSTMETEEGPPQQPPETRAQ
B2: SRPK2 (protein)
chain: MSSRKVLAIQARKRRPKREKHPKKPEPQQKAPLVPPPPPPPPPPPPPLPDPTPPEPEEEILGSDDEEQEDPADYCKGGYHPVKIGDLFNGRYHVIRKLGWGHFSTVWLCWDMQGKRFVAMKVVKSAQHYTETALDEIKLLKCVRESDPSDPNKDMVVQLIDDFKISGMNGIHVCMVFEVLGHHLLKWIIKSNYQGLPVRCVKSIIRQVLQGLDYLHSKCKIIHTDIKPENILMCVDDAYVRRMAAEATEWQKAGAPPPSGSAVSTAPQQKPIGKISKNKKKKLKKKQKRQAELLEKRLQEIEELEREAERKIIEENITSAAPSNDQDGEYCPEVKLKTTGLEEAAEAETAKDNGEAEDQEEKEDAEKENIEKDEDDVDQELANIDPTWIESPKTNGHIENGPFSLEQQLDDEDDDEEDCPNPEEYNLDEPNAESDYTYSSSYEQFNGELPNGRHKIPESQFPEFSTSLFSGSLEPVACGSVLSEGSPLTEQEESSPSHDRSRTVSASSTGDLPKAKTRAADLLVNPLDPRNADKIRVKIADLGNACWVHKHFTEDIQTRQYRSIEVLIGAGYSTPADIWSTACMAFELATGDYLFEPHSGEDYSRDEDHIAHIIELLGSIPRHFALSGKYSREFFNRRGELRHITKLKPWSLFDVLVEKYGWPHEDAAQFTDFLIPMLEMVPEKRASAGECLRHPWLNS
B3: TBK1 (protein)
chain: MQSTSNHLWLLSDILGQGATANVFRGRHKKTGDLFAIKVFNNISFLRPVDVQMREFEVLKKLNHKNIVKLFAIEEETTTRHKVLIMEFCPCGSLYTVLEEPSNAYGLPESEFLIVLRDVVGGMNHLRENGIVHRDIKPGNIMRVIGEDGQSVYKLTDFGAARELEDDEQFVSLYGTEEYLHPDMYERAVLRKDHQKKYGATVDLWSIGVTFYHAATGSLPFRPFEGPRRNKEVMYKIITGKPSGAISGVQKAENGPIDWSGDMPVSCSLSRGLQVLLTPVLANILEADQEKCWGFDQFFAETSDILHRMVIHVFSLQQMTAHKIYIHSYNTATIFHELVYKQTKIISSNQELIYEGRRLVLEPGRLAQHFPKTTEENPIFVVSREPLNTIGLIYEKISLPKVHPRYDLDGDASMAKAITGVVCYACRIASTLLLYQELMRKGIRWLIELIKDDYNETVHKKTEVVITLDFCIRNIEKTVKVYEKLMKINLEAAELGEISDIHTKLLRLSSSQGTIETSLQDIDSRLSPGGSLADAWAHQEGTHPKDRNVEKLQVLLNCMTEIYYQFKKDKAERRLAYNEEQIHKFDKQKLYYHATKAMTHFTDECVKKYEAFLNKSEEWIRKMLHLRKQLLSLTNQCFDIEEEVSKYQEYTNELQETLPQKMFTASSGIKHTMTPIYPSSNTLVEMTLGMKKLKEEMEGVVKELAENNHILERFGSLTMDGGLRNVDCL
B4: STK22B(TSSK2) (protein)
chain: MDDATVLRKKGYIVGINLGKGSYAKVKSAYSERLKFNVAVKIIDRKKTPTDFVERFLPREMDILATVNHGSIIKTYEIFETSDGRIYIIMELGVQGDLLEFIKCQGALHEDVARKMFRQLSSAVKYCHDLDIVHRDLKCENLLLDKDFNIKLSDFGFSKRCLRDSNGRIILSKTFCGSAAYAAPEVLQSIPYQPKVYDIWSLGVILYIMVCGSMPYDDSDIRKMLRIQKEHRVDFPRSKNLTCECKDLIYRMLQPDVSQRLHIDEILSHSWLQPPKPKATSSASFKREGEGKYRAECKLDTKTGLRPDHRPDHKLGAKTQHRLLVVPENENRMEDRLAETSRAKDHHISGAEVGKAST
B5: RPS6KB2(p70S6K2) (protein)
chain: MAAVFDLDLETEEGSEGEGEPELSPADACPLAELRAAGLEPVGHYEEVELTETSVNVGPERIGPHCFELLRVLGKGGYGKVFQVRKVQGTNLGKIYAMKVLRKAKIVRNAKDTAHTRAERNILESVKHPFIVELAYAFQTGGKLYLILECLSGGELFTHLEREGIFLEDTACFYLAEITLALGHLHSQGIIYRDLKPENIMLSSQGHIKLTDFGLCKESIHEGAVTHTFCGTIEYMAPEILVRSGHNRAVDWWSLGALMYDMLTGSPPFTAENRKKTMDKIIRGKLALPPYLTPDARDLVKKFLKRNPSQRIGGGPGDAADVQRHPFFRHMNWDDLLAWRVDPPFRPCLQSEEDVSQFDTRFTRQTPVDSPDDTALSESANQAFLGFTYVAPSVLDSIKEGFSFQPKLRSPRRLNSSPRAPVSPLKFSPFEGFRPSPSLPEPTELPLPPLLPPPPPSTTAPLPIRPPSGTKKSKRGRGRPGR
B6: TAOK2(TAO1) (protein)
chain: MPAGGRAGSLKDPDVAELFFKDDPEKLFSDLREIGHGSFGAVYFARDVRNSEVVAIKKMSYSGKQSNEKWQDIIKEVRFLQKLRHPNTIQYRGCYLREHTAWLVMEYCLGSASDLLEVHKKPLQEVEIAAVTHGALQGLAYLHSHNMIHRDVKAGNILLSEPGLVKLGDFGSASIMAPANSFVGTPYWMAPEVILAMDEGQYDGKVDVWSLGITCIELAERKPPLFNMNAMSALYHIAQNESPVLQSGHWSEYFRNFVDSCLQKIPQDRPTSEVLLKHRFVLRERPPTVIMDLIQRTKDAVRELDNLQYRKMKK
B7: SGK2 (protein)
chain: LPDHCYRMNSSPAGTPSPQPSRANGNINLGPSANPNAQPTDFDFLKVIGKGNYGKVLLAKRKSDGAFYAVKVLQKKSILKKKEQSHIMAERSVLLKNVRHPFLVGLRYSFQTPEKLYFVLDYVNGGELFFHLQRERRFLEPRARFYAAEVASAIGYLHSLNIIYRDLKPENILLDCQGHVVLTDFGLCKEGVEPEDTTSTFCGTPEYLAPEVLRKEPYDRAVDWWCLGAVLYEMLHGLPPFYSQDVSQMYENILHQPLQIPGGRTVAACDLLQSLLHKDQRQRLGSKADFLEIKNHVFFSPINWDDLYHKRLTPPFNPNVTGPADLKHFDPEFTQEAVSKSIGCTPDTVASSSGASSAFLGFDYAPEDDDILDC
B8: TAOK3(JIK) (protein)
chain: MRKGVLKDPEIADLFYKDDPEELFIGLHEIGHGSFGAVYFATNAHTSEVVAIKKMSYSGKQTHEKWQDILKEVKFLRQLKHPNTIEYKGCYLKEHTAWLVMEYCLGSASDLLEVHKKPLQEVEIAAITHGALHGLAYLHSHALIHRDIKAGNILLTEPGQVKLADFGSASMASPANSFVGTPYWMAPEVILAMDEGQYDGKVDIWSLGITCIELAERKPPLFNMNAMSALYHIAQNDSPTLQSNEWTDSFRRFVDYCLQKIPQERPTSAELLRHDFVRRDRPLRVLIDLIQRTKDAVRELDNLQYRKMKKILFQETRNGPLNESQEDEEDSEHGTSLNREMDSLGSNHSIPSMSVSTGSQSSSVNSMQEVMDESSSELVMMHDDESTINSSSSVVHKKDHVFIRDEAGHGDPRPEPRPTQSVQSQALHYRNRERFATIKSASLVTRQIHEHEQENELREQMSGYKRMRRQHQKQLIALENKLKAEMDEHRLKLQKEVETHANNSSIELEKLAKKQVAIIEKEAKVAAADEKKFQQQILAQQKKDLTTFLESQKKQYKICKEKIKEEMNEDHSTPKKEKQERISKHKENLQHTQAEEEAHLLTQQRLYYDKNCRFFKRKIMIKRHEVEQQNIREELNKKRTQKEMEHAMLIRHDESTRELEYRQLHTLQKLRMDLIRLQHQTELENQLEYNKRRERELHRKHVMELRQQPKNLKAMEMQIKKQFQDTCKVQTKQYKALKNHQLEVTPKNEHKTILKTLKDEQTRKLAILAEQYEQSINEMMASQALRLDEAQEAECQALRLQLQQEMELLNAYQSKIKMQTEAQHERELQKLEQRVSLRRAHLEQKIEEELAALQKERSERIKNLLERQEREIETFDMESLRMGFGNLVTLDFPKEDYR
B9: STK17A(DRAK1) (protein)
chain: MIPLEKPGSGGSSPGATSGSGRAGRGLSGPCRPPPPPQARGLLTEIRAVVRTEPFQDGYSLCPGRELGRGKFAVVRKCIKKDSGKEFAAKFMRKRRKGQDCRMEIIHEIAVLELAQDNPWVINLHEVYETASEMILVLEYAAGGEIFDQCVADREEAFKEKDVQRLMRQILEGVHFLHTRDVVHLDLKPQNILLTSESPLGDIKIVDFGLSRILKNSEELREIMGTPEYVAPEILSYDPISMATDMWSIGVLTYVMLTGISPFLGNDKQETFLNISQMNLSYSEEEFDVLSESAVDFIRTLLVKKPEDRATAEECLKHPWLTQSSIQEPSFRMEKALEEANALQEGHSVPEINSDTDKSETKESIVTEELIVVTSYTLGQCRQSEKEKMEQKAISKRFKFEEPLLQEIPGEFIY
B10: SLK (protein)
chain: MSFFNFRKIFKLGSEKKKKQYEHVKRDLNPEDFWEIIGELGDGAFGKVYKAQNKETSVLAAAKVIDTKSEEELEDYMVEIDILASCDHPNIVKLLDAFYYENNLWILIEFCAGGAVDAVMLELERPLTESQIQVVCKQTLDALNYLHDNKIIHRDLKAGNILFTLDGDIKLADFGVSAKNTRTIQRRDSFIGTPYWMAPEVVMCETSKDRPYDYKADVWSLGITLIEMAEIEPPHHELNPMRVLLKIAKSEPPTLAQPSRWSSNFKDFLKKCLEKNVDARWTTSQLLQHPFVTVDSNKPIRELIAEAKAEVTEEVEDGKEEDEEEETENSLPIPASKRASSDLSIASSEEDKLSQNACILESVSEKTERSNSEDKLNSKILNEKPTTDEPEKAVEDINEHITDAQLEAMTELHDRTAVIKENEREKRPKLENLPDTEDQETVDINSVSEGKENNIMITLETNIEHNLKSEEEKDQEKQQMFENKLIKSEEIKDTILQTVDLVSQETGEKEANIQAVDSEVGLTKEDTQEKLGEDDKTQKDVISNTSDVIGTCEAADVAQKVDEDSAEDTQSNDGKEVVEVGQKLINKPMVGPEAGGTKEVPIKEIVEMNEIEEGKNKEQAINSSENIMDINEEPGTTEGEEITESSSTEEMEVRSVVADTDQKALGSEVQDASKVTTQIDKEKKEIPVSIKKEPEVTVVSQPTEPQPVLIPSININSDSGENKEEIGSLSKTETILPPESENPKENDNDSGTGSTADTSSIDLNLSISSFLSKTKDSGSISLQETRRQKKTLKKTRKFIVDGVEVSVTTSKIVTDSDSKTEELRFLRRQELRELRFLQKEEQRAQQQLNSKLQQQREQIFRRFEQEMMSKKRQYDQEIENLEKQQKQTIERLEQEHTNRLRDEAKRIKGEQEKELSKFQNMLKNRKKEVINEVEKAPKELRKELMKRRKEELAQSQHAQEQEFVQKQQQELDGSLKKIIQQQKAELANIERECLNNKQQLMRAREAAIWELEERHLQEKHQLLKQQLKDQYFMQRHQLLKRHEKETEQMQRYNQRLIEELKNRQTQERARLPKIQRSEAKTRMAMFKKSLRINSTATPDQDRDKIKQFAAQEEKRQKNERMAQHQKHENQMRDLQLQCEANVRELHQLQNEKCHLLVEHETQKLKELDEEHSQELKEWREKLRPRKKTLEEEFARKLQEQEVFFKMTGESECLNPSTQSRISKFYPIPSLHSTGS

Target: T1, Bovine, dephosphorylated, Myelin Basic Protein (MBP), P02687
T1 chain: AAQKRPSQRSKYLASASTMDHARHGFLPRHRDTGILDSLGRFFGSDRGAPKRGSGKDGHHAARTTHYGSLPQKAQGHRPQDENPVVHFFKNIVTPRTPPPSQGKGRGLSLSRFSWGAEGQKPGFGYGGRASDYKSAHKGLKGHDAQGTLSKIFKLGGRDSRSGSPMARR

Protein | MBP Kinase Activity
B1 | Strong
B2 | Strong
B3 | Strong
B4 | Negative
B5 | Negative
B6 | Strong
B7 | Weak
B8 | Strong
B9 | Negative
B10 | Weak
